From the supplement of paper PMC9170038

System: K4 kissing-loop RNA reporter
Experiment: apparent KD of K4 kissing-loop reporter; higher = weaker reporter binding
Settings: Eterna round: R107
Procedure: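 RNA-MaP round R107: designed RNA switches with theophylline, tryptophan, arginine or FMN aptamers are transcribed on-chip within common flanks. They are titrated with a labelled K4 kissing-loop RNA reporter in RNA-MaP buffer (100 mM Tris pH 7.5, 80 mM KCl, 4 mM MgCl2), without ligand or with the indicated ligand. Median apparent KD per design.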

[1] = input ligand: theophylline 20 uM
[2] = input ligand: tryptophan 2.4 mM
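Note: bound reporter read as fluorescence of individual clusters on recovered sequencing chips by microscopy, with normalized cluster intensities fitted with a binding model.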

Row | Sequence | apparent KD of K4 kissing-loop reporter (input ligand: FMN 200 uM) [nM] | apparent KD of K4 kissing-loop reporter (input ligand: arginine 13.2 mM) [nM] | apparent KD of K4 kissing-loop reporter (input ligand: none) [nM] | apparent KD of K4 kissing-loop reporter [1] [nM] | apparent KD of K4 kissing-loop reporter [2] [nM]
1 | AAGUGAUGUUGUAGUGAUGUUGUGAUGUUGCAGGAUAUAUAGUGAUGUAGAAGGGUAAGGACUGUUUUUUUUUUUGAGUGAUGUU [ookooyzrmullin] | 94.2 | 41.4 | 70.5 | 56.8 | 73.3
2 | UGAUAAAGCAGUGAUGUUGCAAGUAAUGAUACCAGUUAAGAAGAGAACCCUUGGCAGCAUAAAGUGCGCUCUAAUGAGUGUGCUU [whbob_SS_Theo_A_w51] | 82.9 | 138 | 103 | 169 | 91.3
3 | AGUGUGCAAAAGCACACUCAGCACAAGGACAAGGAUAUCUACUAAUAGAGAAGGUGUCCUUUCCUUAGUGAUGUUAAGGAGCUGA [Omei KL FMN A SS D v1] | 238 | 526 | 700 | 624 | 693
4 | UUAGAGAUCUCAGGAUAUGAGUGAUGUUGGUGUCAAGAUCUGAGAUAGAAUUCUAUCUCAGAUCAAUCAGAAGGGAGAUCUCAUU [AK2.2 Exc FMN B] | 325 | 294 | 483 | 485 | 413
5 | CUGACGCUGAUACGGUGGCCGAUGGUCGUGCGAGGACCGGUACGGCCGCCACUCGCAUGAGUGAUGUUCAUGUGUCGUCGUCGUC [#06 K4 Tryptophan A Exclusion] | 135 | 115 | 130 | 106 | 142
6 | GAACGAGUGAUGUUCGUUGGCAUGCAUUCCGAGGAUAUGGGAUUAGCCAGAAGGCGGAAUCAGUCUUCGAGUGAUGUUCGAAGAU [Same State FMN A GF 12] | 112 | 104 | 116 | 104 | 111
7 | CCUAUCUCAUACGAUACCAGUCUAUUAAAACGAGUGAUGUUCGAAUAUUUGCCAUAUAAUGACCCUUGGCAGCGUAUGGGAUAGG [Ex Theophylline B K4 9] | 221 | 229 | 244 | 230 | 190
8 | UACUAACGUUAAGGAUAUGCGUCGAUUACCGGUAAGUGAUGUUUAGCGCCCGGGCAACGGUGGGUCGCAGAAGGUAAACACAGUU [theeternabot_sameState_KL_FMN_B_19] | 689 | 551 | 795 | 640 | 610
9 | GCGGGCCCUGGAGGAUAUGAGUCGAGUGAUGUUCGGCGGUCCAUGCCGAUGCGGCGUUAUGCCCUUUUAGAAGGCCAGGGUCCGC [#2 Exclusion - FMN B Attempt #8 (HarryS)] | 543 | 234 | 283 | 302 | 289
10 | AAAUUUAAUAUAUUUAAUUAAUUAUGUGAUACCAGACAUUAAUAAGUCCCUUGGCAGCACAAUGCAGUGAUGUUGCUUAUAAUAA [JR_SSTheophyA_Sub010] | 85.7 | 117 | 86.9 | 138 | 70.3
11 | AAGUAGUCCCUUGUUGUCAUCGAAGAUGAACGAGGACCGGUACGGCCGCCACUCGGAGUGAUGUUCCGAUGGCUGCAAAAUAAAA [MatMod 22 - Jieux - Exclusion - Tryptophan A] | 103 | 88.9 | 92 | 91.4 | 101
12 | GGUAUGGAAGCAACAUCACAAGCCGUACCACGAGGACCGGUACGGCCGCCACUCGAUAACUUGCAGUGAUGUUGCAAGUAAGAAU [(T)''-(K)'-(T)'-(T1)-(T2)-(K1)-(K2)_Design6] | 147 | 80.5 | 133 | 117 | 68.6
13 | UGAUAGGACAGAAGGAGCGGGAGUGAUGUUCCCAAUAAAAGGUCUAGCAAAGCUAGACCCUCCCAGGUAGGUCGCUGUCCUAUCU [ArgBX 2 #Palindromic #SwitchBubble #StaticStem] | 234 | 265 | 268 | 245 | 219
14 | GCUGAGGAGUGAUGUUCCAAGUGAUGUUAACGAGGACCGGUACGGCCGCCACUCGAUACGGCCGGACCGUAAGAUAAACUACAGC [Same State - Tryptophan A (Freestyle 7)] | 316 | 281 | 288 | 409 | 315
15 | CUUAAGACAUGAGUGAUGUUCAUGUCCGAAGGAGCGUGCGAAAGCACAGGUAGGUCGCGGACGUGAGUGAUGUUCAUGUAAGCGA [KL-XArg-A11 #analogue] | 159 | 125 | 156 | 154 | 140
16 | AAAGUUGCAAGUGAUACCAGACGAGUGAAGGGAAGUAAUUAAUUAGGAGUGAUGUUCCGCGUCCCUUGGCAGCACUUUGUAAUUU [Exclusion Theophylline B GF 25] | 155 | 165 | 152 | 184 | 115
17 | GCAUGAUAGUAAGGAUAUAGAUAAUCCUUAUAUAUAUCGAGUGAUGUUCGAUGUGCCAAGGUACAUCUAGAAGGUACUGUAAGGU [Same State FMN B GF 17] | 265 | 288 | 257 | 355 | 239
18 | AAUAUAGUGAUGUUAUAUAAGAAGGAGUUACGAGGACCGGUACGGCCGCCACUCGAAACGAGUGAGGGCUUGGGAGAUUGGGCCC [SSTryptA.I] | 404 | 346 | 444 | 377 | 264
19 | AAUAAUGAUGUUUAGGAAAGUAAAAUGGAAGGAGCGUGCGAAAGCACAGGUAGGUCGCCAGUGAUGUUGGAACCUGAGCAUCAAA [#SwitchBubble 19 #K4Late] | 907 | 633 | 836 | 925 | 757
20 | UUUAUGAUGUCGGCCGCCACUGGAUUAAUAUGUGUGUAAUCUAGUUCUGAGUGAUGUUUAGAGUCCAGGACCGGGACAUUUGUUA [#11 K4 Tryptophan B Exclusion] | 542 | 373 | 522 | 649 | 452
21 | UAUACUAGACAAGAGAGAAUUCUCUCAAGAGAGGAUAUCCGAAUUCGGAGAAGGCUCGCUAAGUGAUGUUUGGAAUAGUCUAGAA [AK4 SS FMN A] | 418 | 352 | 339 | 319 | 384

Row | Sequence | apparent KD of K4 kissing-loop reporter (input ligand: FMN 200 uM) [nM] | apparent KD of K4 kissing-loop reporter (input ligand: arginine 13.2 mM) [nM] | apparent KD of K4 kissing-loop reporter (input ligand: none) [nM] | apparent KD of K4 kissing-loop reporter [1] [nM] | apparent KD of K4 kissing-loop reporter [2] [nM]
22 | AUCCGGAGUGCGGCCGCCACUAUCGGAUAGAGUGAUGUUCUAUCCGGCCUUAAAGGCGCGAACGAUAGGACCGGGCACUCUAAAU [Quatinti] | 121 | 124 | 136 | 128 | 122
23 | AGACUUCACCGAAGGAGCGACGUGGCCUAGUGAUGUUAGGUACGAGAGAAAUCUCGUAUACGUCAGGUAGGUCGCGGUGAAGUCA [Omei KL Arginine B SS C v8] | 868 | 643 | 997 | 721 | 830
24 | GGCCACGGGCGAGGAUAUGGGCAUGAUUCAUCCUGGAGUGAUGUUCCAGGUCCUACGUUUCUAGCACCAGAAGGCGUUUGUUGCU [Enistein] | 131 | 196 | 215 | 180 | 165
25 | UGUGAGCUGUCGACAAAAGUCGACUAAAGCGAGGAUAUGACGAAAGUCAGAAGGCGUCAAUAAUGGAGUGAUGUUCCUGCUCACU [FmnA 9 G29] | 306 | 436 | 596 | 489 | 406
26 | UAGGGCAUCGCAGGAUAUCCUGCUUAACGUUGGAUUCCAGUGAUGUUGGAAAGCCGGCCUAGGGUAGGAGAAGGGCGGACUUGAA [Riteteve] | 160 | 167 | 167 | 187 | 242
27 | AAUGUGCAGGGAAGGAGCGUAGUCCAGUGCUGUUGGAGUUAAAUACCAGUGAUGUUGGUUAUACAGGUAGGUCGCCCUAAAGCGC [whbob_Ex_Arginine_B_2th160] | 141 | 176 | 158 | 211 | 129
28 | CAGAACUUGUAUACAGGGCAUGCCAGAGAUACCAGUCAAAUGGAAGGCCCUUGGCAGCUCAGGCGAGUGAUGUUCGCAGGCUGAC [Exclusion Theophylline A GF 19] | 140 | 122 | 116 | 131 | 133
29 | GGCAUCCAUGGACCUAGUGAUGUUAGGUACCGAGGACCGGUACGGCCGCCACUCGGCCAUGGAUGCCGCAAUCGGAAACGAUUGC | 406 | 243 | 408 | 460 | 345
30 | CACAAUUAAUUACAGUGAUGUUGUAAUCUGCGAGGACCGGUACGGCCGCCACUCGGGCUUGUAGGGCGCCCACAUUCUUAUACUA [theeternabot_sameState_KL_Trp_A_29] | 447 | 348 | 426 | 428 | 360
31 | CGGUACGUCGCAGGAUAUGUAAAUGUAAGUGAUGUUUACAUACCAUGCUGGCGAAAGCCAGCAUGGACAGAAGGGCGACGUACCG | 111 | 354 | 470 | 328 | 506
32 | AAUUACCUAGUGAUGUUGGGAAUAAUAUAACGAGGACCGGUACGGCCGCCACUCGAGGUCCUAAUUAAGAACGCGAAAGCGAAGA [Tryptophan A Exclusion; Euphoria Solution] | 94.4 | 60.5 | 93.1 | 66.8 | 189
33 | CUCGAGUGAUGUUCGAUUAUGUAUACAGAUACCAGUGAAUUUUAACACCCUUGGCAGCUGGUAGAAUCAUUGUAAUUUUAACUAG [JR_ExcTheophyA_Sub001] | 175 | 260 | 218 | 254 | 150
34 | UGUCAUUGGUCGGCCGCCACUAGAAGGUCAAAGACCAUGGAGUGAUGUUCUAAGACGAAAGUCACUAGGACCGGGACCGAUGACU [TrypBS 5 #SwitchBubble #K4Middle] | 1640 | 689 | 1450 | 918 | 575
35 | GAUUCAGUGAUGUUGGAAGGCGAGCGGGAUACCAGCCAAGACUCAGGCCCUUGGCAGCCCACAUAUCCCAGGUAGAUAGUAGCUC [Same State - Theophylline A (Freestyle 12)] | 168 | 111 | 142 | 146 | 132
36 | UGUCGAGUGAUGUUCGAUGUGGUGCAUUCAGAGGAUAUAGGGUGGGCUAGAAGGCUGAAAAGUGCUUCGAGUGAUGUUCGAAGAU [Exclusion FMN A GF8] | 70.6 | 117 | 144 | 132 | 110
37 | GGGAGUAGUGCGGCCGCCACUGAGAAAGAAGAAGAAUAUAGUGAUGUUAUAUAGGAAUUAAAGAACAGGACCGGGCAUUAGAUUU [SSTRyptB.O] | 210 | 208 | 219 | 163 | 143
38 | ACUAGAAAACCAGUGAUGUUGGCCUGGGAUACCAGCUUCUAUUAUAGCCCUUGGCAGCCCUUUAGUACAAGUGACCUUGCGACCG [theeternabot_sameState_KL_Theo_A_9] | 299 | 217 | 452 | 217 | 277
39 | CGAGUGAUGUUCGUUUUUUACUCUUUUUGACAGGAUAUGCGGAAACGCAGAAGGGUCACCUUUGAGUUAAAAGGAGUUAUUUUUU [Ex FMN A 19] | 345 | 269 | 318 | 305 | 317
40 | GACUGGUUAACGAGUGAUGUUCGAUGGGAAGGAGCGCGCAGAAGUGCAGGUAGGUCGCCCUAUAACCAGGAAAUGGCUGGAUUAU [3.)] | 205 | 224 | 205 | 252 | 145
41 | UGAUAGGACAGAAGGAGCGGAAGUGAUGUUUCCAAUGGAUAAAAGGUGUCAAAGACACCCUUCCAGGUAGGUCGCUGUCCUAUCU [ArgBX 17 #Palindromic #SwitchBubble #StaticStem] | 146 | 160 | 148 | 141 | 132
42 | AGAACUGUCUGAGAUACCAGCUAAGGAGUGAUGUUCCGGCUCGACGAAACGUCGAGCCAUAGCCCUUGGCAGCUCAGACAGUUCA [#27 K4 Theophylline B Same State] | 431 | 183 | 378 | 873 | 244
